Experimental findings from patent publication US8063181B2, “Method for the production of cyclic molecules” (ZYRUS Beteiligungsgesellschaft mbH & Co. Patent I KG, priority 2003, dated 2011) are described below.

By Km is commonly meant the concentration of substrate that gives half-maximal velocity. What is called kcat is the number of substrate molecules converted per active site and unit of time at saturation.

Substrate in series [1]: CC(C)C[C@H](NC(=O)[C@@H](CC(=O)O)NC(=O)[C@H](NC(=O)[C@H](CN)NC(=O)[C@@H](CC(C)C)NC(=O)[C@@H](CCC(=O)O)NC(=O)CC(C)O)C(C)C)C(=O)N[C@H](CC(C)C)C(=O)Sc1ccccc1
In words: cyclization kinetics with surfactin-peptide cyclase. Format: biochemical. Particulars: other: cyclization reaction; pH 7.0; 40.0 °C. The method, then:
[…] The production of the HEPES solution is known to persons skilled in the art and was described in J. Sambrook, E. F. Fritsch and T. Maniatis: Molecular Cloning: A Laboratory Manual Vol. I-III, Cold Spring Harbor Laboratory Press, 1982. The identification and quantification of the reaction product is carried out by means of analytical HPLC.
With this measurement, the linear range for further kinetic studies is determined. The reactions are stopped by the addition of 35 μL TFA (4% in water) and examined by analytic HPLC with a Nucleodur C18 column (Macherey and Nagel, 250/3, pore diameter: 100 Å, particle size: 3 μm) with the following gradient: 0-35 min, 30-60% acetonitrile/0.1% TFA in water/0.1% TFA; 0.4 mL/min, 40° C. Kinetic examinations are carried out at different points in time at substrate concentrations of 50 μM up to 1000 μm and the kinetic parameters KM and kcat are taken from the Lineweaver-Burk plot. For fengycin-thiophenol, a KM of 461 μm and a kcat of 0.33 min^−1 result from the cyclization reaction.
In the case of surfactin-peptide cyclase, kinetic reference data with a SNAC-substrate exists. In the case of surfactin-thiophenol, a KM of 126 μm and a kcat of 5.6 min^−1 are determined for the cyclization reaction, which corresponds to a kcat/KM value of 0.04 μm^−1 min^−1. Compared with that is the kinetic efficiency of surfactin-SNAC, represented by the kcat/KM value 0.0029 μm^−1 min^−1, 14 times less than with surfactin-thiophenol.

Substrate in series [2]: CCC(C)[C@H](NC(=O)[C@H](Cc1ccc(O)cc1)NC(=O)[C@@H](CCC(N)=O)NC(=O)[C@@H]1CCCN1C(=O)[C@@H](C)NC(=O)[C@@H](CCC(=O)O)NC(=O)[C@H](NC(=O)[C@H](Cc1ccc(O)cc1)NC(=O)[C@H](CCCN)NC(=O)[C@H](CCC(=O)O)NC(C)=O)C(C)O)C(=O)Sc1ccccc1
In words: cyclization kinetics with fengycin-peptide cyclase. Format: biochemical. Particulars: other: cyclization reaction, Lineweaver-Burk plot, 25 mM HEPES, 50 mM NaCl, pH 7, room temperature. The procedure:
The purified substrate with the leaving group according to the present invention is then incubated with the respective peptide cyclase in the ratio of 1 (enzyme): 100 (substrate) in 25 mM HEPES, 50 mM NaCl at pH 7 and room temperature for 30-60 minutes. The production of the HEPES solution is known to persons skilled in the art and was described in J. Sambrook, E. F. Fritsch and T. Maniatis: Molecular Cloning: A Laboratory Manual Vol. I-III, Cold Spring Harbor Laboratory Press, 1982. The identification and quantification of the reaction product is carried out by means of analytical HPLC.
The cyclization of the linear fengycin-thiophenol substrate is carried out in an aqueous cyclization buffer comprised of 2-[4-(2-hydroxyethyl)-1-piperazinyl]-ethane sulfonic acid (HEPES, 25 mM) and sodium chloride (NaCl, 50 mM) at pH 7 in a total volume of 50 μL. The substrate concentration is 100 μM for standard cyclization reactions. The cyclization reaction is initiated by the addition of recombinant fengycin TE at an end concentration of 5 μM and stopped by the addition of 35 μL of 4% trifluoroacetic acid (TFA) in water after 4 hours. […]
With this measurement, the linear range for further kinetic studies is determined. […]

B1: surfactin-peptide cyclase (Bacillus subtilis subsp. subtilis str. 168) (protein)
chain: QIIFAFPPVLGYGLMYQNLSSRLPSYKLCAFDFIEEEDRLDRYADLIQKLQPEGPLTLFGYSAGCSLAFEAAKKLEEQGRIVQRIIMVDSYKKQGVSDLDGRTVESDVEALMNVNRDNEALNSEAVKHGLKQKTHAFYSYYVNLISTGQVKADIDLLTSGADFDMPEWLASWEEATTGVYRVKRGFGTHAEMLQGETLDRNAEILLEFLNTQT
notes: purified, isolated thioesterase domains or peptide cyclases from NRPS or PKS systems
As to B1, in series [1], the Michaelis constant (Km) worked out at 126 µM, the kcat is 5.6 min⁻¹ and the kcat/Km was 0.04 μm^−1 min^−1.

B2: recombinated fengycin-peptide cyclase (Bacillus subtilis subsp. subtilis str. 168) (protein)
chain: QNLFCFPPISGFGIYFKDLALLLNEKAAVYGFHFIEQDTRIEQYVNCMTDIQPEGPYVLLGYSAGGNLAFEVAQAMERKGLEVSDFIIVDAYLKEQPLPIDTGNDESAAYLPEAVREKVMKKKRNYQEYWAQLLNEGHIKASIHFIEAGIHPETSGHTGLTKWEGACGNYSEYTGFGAHKDMLEGTYAEKNADIILDILEKITSNQ
notes: recombinant fengycin TE
With B2, in series [2], the Km stood at 461 µM and the kcat amounted to 0.33 min⁻¹.
